Reference: the nanobody polyreactivity screen of Harvey et al. (2022)

Assay: yeast display, Sf9 membrane polyspecificity reagent, FACS + sequencing; frameworks hold sequencing errors
Procedure, shortened: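 Synthetic nanobody libraries on Saccharomyces cerevisiae BJ5465 were galactose-induced for 36–48 hours, stained 1 hour at 4 °C with 10% biotinylated, detergent-solubilized Sf9 membrane reagent and enriched on streptavidin microbeads. FACS then separated cells into low and high (top ~1%) gates by anti-HA (expression) and streptavidin (reagent binding) fluorescence. Genes were colony-PCR amplified, MiSeq 2 × 250 sequenced and CDR-length filtered. A clone's polyreactivity label is that of its gate of origin.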

Sequence	polyreactivity (PSR sort gate)
QVQLVESGGGLVHAGGRLRLSCAASGRIFWINAMGWSRQAPGKDRELVATISSGSTSYADSVKGRFTISRDNAKNTVYLQMNRLKPEATAVYYCAVTLRYTRSGAYDYWGQGTQVTVSS	low polyreactivity
QVQLVDSGGCLVQAGGSLRLSCAASGRTFYRYAMGWYRQAPGKEREFVARITTSGGSTYYADSVKGRFTISRDNAKNTVYLKMNSLKPEDTEVYYCNARGVTYAFFRFDYWGQGTQVTVSS	high polyreactivity
QVQLVESGGGLVQAGGSLRLSCAASGRIFHYYAMGWYRQAPGKERELVAAISWSGGSTYYADSVKGRFTISRDNAKNTVYLQMNSLKPEVTAVYYCNRQFGRRVYISHPGPGYWGQGTQVTVSS	high polyreactivity
QVQLVESGGGLVQAGGSLRLSCAPSGSTFDPFAMGWYRQAPGKERELVADITSSDGSTYYADSVKGRFTISRDNAKNTVYFQMNSLKPEVTAVYYCYSDYRYFWTYWGWSIYDYWGQGTQVTVSS	high polyreactivity
QVQLVESGGGLVQAGGSLRLSCAAYGSFFPYNAMGWYRQAPGKERELVAGITRRGGSTYYADSVKGRFTISRDNAKNTVYLQINSLKPVDTAVYYCGTEVTYPWHVDEGDYWGQGTQVTVSS	low polyreactivity
QVQIVESGAGLVQAGGTLRISCAPSGITFTPYAMGWYRQAPGKEWELVATITSDGGSTYYADSVKGRFTISRDNAKNTVYLQKNSLKPEETAVYYCAAADHAWLYGWGYSLDVWYYYWGQGNQVTVSS	low polyreactivity
QVQLVESGGGLVQAGGSLRLSCAASGITFDYNAMGWYRQAPGKERELVADISASGDSTYYADSVKGRFTISRDNAKNTVYLQMNSLKPEDTAVYYCNTAYWYSWGYDYWGQGTQVTVSS	low polyreactivity
QVQLVESGGGLVQAGGSLRLSCAASGSTFYSNAMGWYRQAPGKERELVAAISSTGSSTYYADSVKGRFTISRDNAKNTVYLQMNSLKPEDTAVYYCATDYYQSYWPATYDYWGQGTQVTVSS	low polyreactivity
QVQLQESGGGLVQAGGSLGCAASCNISTRSEMGWYRQAPGKEREFVATINSGGITNYADSLKGRFTISRDNAKNTVYLRKNSLKAEVTAVYYRAVYGYFSYPYDYWGQGTQVSVSS	low polyreactivity
QVQLVESGGGLVQAGGSLRLSCAASGFIFRYYTMGWYRQAPGKERELVAVITSGGTTYYADSVKGRFTISRDNAKNTVYLQMNSLKPEDTAGAADQWTIHRWATYGYWGQGTQVTVSS	low polyreactivity
QVQLVESGGGLVQAGGSLRLSCAASGRTFSSYTMGWYRQAPGKERELVASITNNGGSTYYADSVKGRFTISRDNAKNTVYLQMNSLKPEDTAVYYCAVDSRGKLGISGEYGYWGQGTQVTVSS	low polyreactivity
QVQLVESGGGLVQAGGSLRLSCAASGSTFDVNAMGWYRPAPGKERELVAAISFSGGSTYYADSVKGRFTISRDNAKNTVYLQMNSLKPEDTAVYYCAAEEWRSYYEEYDYWGQGTQVTVSS	low polyreactivity
QVQLVESGGGLVQAGGRLRLSCAASGFIFYYYAMGWYRQAPGKERELVAVLTESASSTYYADSVKGRFTISRDNAKNTVYLQMNSLKPEDTAVYYCNADFWPYTGKYDYWGQGTQVTVSS	low polyreactivity
QVQLVESGGGLVQAGGSLRLSCAASGRIFSFNTMGWYRQAPGKEREFVATIRYSGGSTYADSVKGRFTISRDNAKNTVYLQMNSLKPEDTAVYYCAAAWWSYKFNRDFDYWGQGTQVTVSS	low polyreactivity
QVQLVESGGGLVQAGGSLRLSCAASGSTFDSYAMGWYRPAPGKERELVAAITDSGSSTYYADSVKGRFTISRDNAKNTVYLQMNSLKPEDTAVYYCATYDYHGWSYYRYDYWGQGTQVTVSS	low polyreactivity
QVQLVESGGGLVQAGGSLRLSCAASGIIFEGYAMGWYRQAPGKERELVAAISQSGGSTRYADSVKGRFTISRDNAKNTVYLQMNSLKPEDTAVYYCAKEVWNWGPYYYWGQGTQVTVSS	low polyreactivity
QVQLVESGGGLVQAGGSLRLSCAASGRIFYQYAMGWYRPAPGKERELVAAIRWSGGSTYYADSVKGRFTISRDNAKNTVYLQMNSLKQEDTAVYYCNARYPYWGAYYDYDYWGQGTQVTVSS	low polyreactivity
QVQLVESGGGLVQAGGSLRLSCAASGSIFRYYAMGWYRQAPGKERELVAAISSSGDNTYYADSVKGRFTISRDNAKNTVYLQMNSLKPEDTAVYYCAVRGERRYIYDYWGQGTQVTVSS	high polyreactivity
QVQLVESGGGLVQAGGSLRISSAASGSIFGRYAMGWYRQAPGKERELVAAISSGTSTYYADSVKGRFTISRDNAKNTVYLQRNSLIPEDTAVYYCAARRYSVRSGGTGRMYYWGQGTQVTVSS	high polyreactivity
QVQLVESGGGLVQAGGSLRLSCAASGITFWFNAMGWYRQAPGQERELVAAITSGVDTNYADSVKGRFTISRDNAKNTVYLQMNSLIPEDTAVYYCAAQGGRLKRGRTTSDYWGQGTQVTVSS	low polyreactivity
QVQLVESGGGLVQAGGSLRLSCAASGSIFYYYGMGWYRQAPGKESDLVARISKSVGRTYYADSVKGRFTISRDNAKNTVYLQMNSLKPEDTAVYYCAASRSFQGNRYDYWGQGTQVTVSS	high polyreactivity
QVQIVETGGVLVQAGGSLRLSFADAGLTIYIYAMGWYRQAPGKETELFPAISWIGDSTYYADSVKGLFTISRDNAKNTVYLQLNSLKPEDTAVYYCAADSWRYVAEGLWREYDYWGQGTQVTVSS	low polyreactivity

Sequence	polyreactivity (PSR sort gate)
QVQVVESGGGLVQAGGSLRLSCAASGRTFDVYAMGWYRQAPGKERELVAAITERGSTYYADSVKRRFTISRDNAKNTDYLQMNSLKPVDTAVYDCAARTSGDGCIYYYWGQGTQVTVSS	high polyreactivity
QVQLVQSGGGLVQAGGSLRLSCAASGRPSLLMLWDGIDRRLGKKGSWLPLLTLVTPTTYADSVKGRFTISRDNAKNTVYLQMNSLKPEDTAVYYCNADFRPLDHYVNWYYYWGQGTQVTVSS	low polyreactivity
QVQLVESGGGLVQAGGSLRLSCAASGSTFEANAMGWNRPAPWKERELVAVITWTGGSTYYADSVKGRFTISRDNAKNTVYLQMNSLKPEDTAVYYCAADGVVPGRFFWPAHEYDYWGQGTQVTVSS	low polyreactivity
QVQLVESGGGLVQAGGSLRLSCAASGFIFLQNAMGWYRQAPGKERELVAVIRLSSCSTYYADSVKGRFTISRDNAKNTVYFEMNSLKPEDTAVYYCAARGYYSGQTTIGMDYWGQGTQVTVSS	low polyreactivity
QGQLVESGGGLVQAGGSLRLSCAASGRTLYYYAMGWYRQAPGKERELVASIDWDSGITDYADSVTGRFTISRANAKNTVYLQMNILTPEDTAVYYCAAVRVTKKYSYEYWGQGTQVTVSA	low polyreactivity
QVQLVESGGGLVQARGSLRLSCAASGGIFYRNAMGWYRQAPGKERELVAAITQSGGRTYYADSVKGRFTISRDNAKNTVYLQMNSLKPEDTADYYCAKSRYTPTGSLQLNYWGQGTQVTVSS	high polyreactivity
QVQLVESGGGLVKAGGSLRLSCAASGSTFSRNTMGWYRQAPGKERELVAAITKSAVSTYYADTVTGRFTISRDNAKNTDYLEMNSLKPEDTAVYYSAKVYRTSTSKAYDYWGQGTKVTVSS	high polyreactivity
QVQLVESGGGLVQAGGSLRISCAASGRILYRYAMGRYRQAPGKERELVAAITWRGGTTYYADSVKGRFTISRDNAKNTVYLQMNSLKPEDTAVYYCNADWWRTLESDYWGQGTQVTVSS	low polyreactivity
QVQLVESGGGVVQAGGSLRLSCAASGRILRGYALGWYRPAPGTERELVAAITWRGGSTYYADSVKGRFTISRDNAKNTVYLQMNSLKPEDTAVYYCAADRAYRYEMDYWGQGTQVTVSS	high polyreactivity
QVQLVESGGGLVQAGGSLRLSCAASGITFYYYAMGWYRQAPGKERELVASISQSGGSTYYAASVKGRFSISRDNAKNTVYLQMNSLKPEDTAVYYCAADPGRYYPMYYWGQGTQVTVSS	low polyreactivity
QVQLVESGGGLVQAGGSLRLSCAASGFTFDDNAMGWYRQAPGKERELVATISYSDGNTYYADSVKGRFTISRDNAKNTVYLQMNSLKPEDTAVYYCAADEWAVYYIGLDYDYWGQGTQVTVSS	low polyreactivity
QVQLVESGGGLVQAGGSLRLSCAASGSTFQTYAMGWYRQAPGKERELVAAITWRGGSTYYADSVKGRFTISRDNAKTTVYLQMNSLKPEDTAVYSCAAKWHGAHDHRAAYESWGQGTQVTVSS	low polyreactivity
QDHHVESGGGLVQAGGSLRLICAASGSTFSWNTMGWYRPAPGKERDLVAAISWSTGRTYYADSVKGRFTISRDNAKNTVYLQMISLKPEDTAVYYCAARRFVTDGTRREYDYWGQGTQVTVSS	high polyreactivity
QVQLVESVGGLVQAGGSLRLSCAASGSTSYDYAMGWNRQAPGKERELVAAISGSSSTTYYADSVKGRFTISRDNAKNTVYLQMNSLKPEDTAVYYCNAVTTSGSGYGYWGQGTQVTVSS	low polyreactivity
QVQLEESGGGLVQAGGSLRLTCAASGSTFVRYVMGWYRQAPGKERELVAAISRRGGSTYYADSVKGRFTISRDNAKNTVYLEMNSLKPEDTAVYYCARTVGYRTLLESDSWGQGTQVTVSS	high polyreactivity
QVQLVESGGGLVQAGGSLRLSCAPSGFIFGSHAMGWYRQARGKERELVAAISARGGRTYYADSVKERFTISRDNAKNTVYLQMNSLKPADSAVYYCATLDTTGVNYWGQGTQVTVSS	high polyreactivity
QVQLVESGGGLVQAGGSLRLSCAASGITFLYYTRGWYRPAPGKERELVASISRSGNTYYADSVKGRFTISRDNAKNTVYLQMNSLKPEDTAVYYCAAKRKSYYSYNFDYWGQGTQVTVSS	high polyreactivity
QVQLVESGGGLVQAGGSLRISCAASGYIFKYAMGWYRQAPGKERELVAAISRRGGSTYYADSVKGRFTISRDNAKNTVYLQMNSLKPEDTEVYYCAARLPGYYGIGDYWGQGTQVTVSS	high polyreactivity
QVQLVESGGGLVQAGGSLRLTCAASGGTFDRNAMGWYRQAPGKERELVATITRRAGNTYYAYSVKGRFTISRDNAKNTVYLQMNSLKPEDTAVYYFAAYPLRSRRYYYWGQGTQVTVSS	high polyreactivity
QVQLVESGGGLVQAGGSLRLSCAASGSIFNYNMGWYRQAPGKERELVAAVSTNYADSVKGRFTISRDNAKNTVYLQMNSLKPEDTAVYYCGVTPEKSGDEYDYWGQGTQVTVSS	low polyreactivity
QVQLQESGGGLVQAGGSLRLSCAASGSIFLFYTMGCYRPAPVKEREFVAGITLGTTTYNADSVKGRFTISRDNVKNTVYLQMNSLNPVDSAVYYCAVAVGHYTEFWYWGQGTQVTMSS	high polyreactivity
